Measured values taken from patent publication US12604903B2 (priority 2019, dated 2026).

Legend:
[1] = tested on: Phytophthora capsici
[2] = tested on: Alternaria brassicicola

B1: TKPCQSDKDCKKFACRKPKVPKCINGFCKCVRAPKKVEPTKPCQSDKDCKKFACRKPKVPKCINGFCKCVR (protein)
chain: TKPCQSDKDCKKFACRKPKVPKCINGFCKCVRAPKKVEPTKPCQSDKDCKKFACRKPKVPKCINGFCKCVR
notes: two NCR13 monomers linked in tandem by the APKKVEP spacer peptide from MtDef5 defensin, 71 amino acids
growth inhibition of P. capsici (in words) [1]: inhibited the growth
Phytophthora capsici MIC ([1]; in vitro growth inhibition): 3 µM
IC50 ([1]; read-out: Phytophthora capsici IC50, in vitro growth inhibition): 1500 nM
antifungal activity against A. brassicicola (in words) [2]: significantly more active
Alternaria brassicicola MIC ([2]; in vitro growth inhibition): 1.5 µM
IC50 ([2]; read-out: Alternaria brassicicola IC50, in vitro growth inhibition): 750 nM
